Results on eight molecules are retold here after US12168773B2, “Engineered phosphoenolpyruvate carboxylase enzymes” (The Regents of the University of California, priority 2019, dated 2024).

Residue numbers refer to the chain shown, from its start. Names may count otherwise.

The subject of series [1] is Zea mays PPC1 (ZmPPC1, C4 PEPC). Description: malate dehydrogenase coupled PEPC enzymatic assay, maize C4 PPC1 and engineered variants. To be noted: for Km: 0-7.5 mM phosphoenolpyruvate, read-out: Km PEP; for Km / Vmax: 25° C, HEPES pH7.5; for increases in catalytic efficiency relative to wt ZmPPC1: Kcat/Km; for activity of C4 PEPC: substitution introduced into maize C4 PEPC (ZmPPC1). The format is biochemical. The source says:
(§1) For both Arabidopsis C3 PPC1 (AtPPC1) and maize C4 PPC1 (ZmPPC1), the entire coding sequence for each was cloned into pET22b, which contains an amino-terminal 6×-HIS tag for protein purification, and expression was driven by the T7 promoter and lac operon. Relevant mutations were introduced by the Stratagene QuikChange mutagenesis kit using PCR amplification. Both wild type and mutant cDNA constructs were sequenced entirely following cloning into pet22b. Proteins were produced by growing transformed E. coli (BL21 CodonPlus) in autoinduction medium at 18° C. for 16 hours. Proteins were isolated by sonication of bacterial cells followed by passage over a nickel sepharose affinity column, elution with imidazole and separation on a GE SUPERDEX HILOAD 200 PG 16/60 all using an AKTA FPLC.
(§2) Enzyme analysis was conducted in vitro using protein that was generated by expression in E. coli using the pET22b vector. For expression, pET22b constructs were transformed into E. coli BL21-DE3 codon plus RIL cells and grown at 37° C. in autoinduction media until reaching an OD=1 after which these were transferred to 18° C. for 18 hours. Samples were collected and lysed by sonication. Protein was purified by passage through a His-trap nickel affinity column on an Akta FPLC and then eluted with 400 mM imidazole. Partially purified protein was then separated on an FPLC equipped with a HiPrep S200 size exclusion column (16/60) after which collected sample was concentrated by centrifugation to a final concentration of 4 mg/ml in 50% glycerol. Samples were stored at −20° C.
(§3) For enzymatic assays, a malate dehydrogenase coupled reaction was conducted with a range of substrate concentrations (0-7.5 mM phosphoenolpyruvate pyruvate) and a range of concentrations of allosteric inhibitor (0-50 mM malate). Assays were monitored using a Victor2 microplate reader at 25° C. Reactions consisted of […] PPC enzyme variants, 50 mM HEPES pH7.5, 10 mM MgCl2, 10 mM KHCO3 (carbonate substrate), 0.2 mM NADH, and 10 units/ml of malate dehydrogenase. Reaction time was 15 minutes and samples were measured on an ˜40 second interval. For measurement, which monitors loss of NADH, excitation wavelength was 340 nM and emission wavelength was 460 nM.

Series [2] relates to Arabidopsis thaliana PPC1 (AtPPC1, C3 PEPC). Description: malate dehydrogenase coupled PEPC enzymatic assay, Arabidopsis C3 PPC1 and engineered variants. The format is biochemical. The following applies: for Km: 0-7.5 mM phosphoenolpyruvate, read-out: Km PEP; for Km / Vmax: 25° C, HEPES pH7.5.
Excerpt: as §1, §2
as §3, with “nM. From these assays, the enzyme kinetics of Tables 4-1 and 4-2 were determined for each enzyme variant.” for “nM.”

Series [3] has as its system transgenic Arabidopsis seedlings. As to the kind of experiment: root growth analysis of transgenic Arabidopsis in the presence of aluminum. Format: in vivo, Arabidopsis thaliana. To be noted: day 7, 20° C, soaked gel, aluminum toxicity equivalent to about 50-100 μM; versus plants expressing wt AtPPC1. The protocol: Root growth was examined in transgenic Arabidopsis engineered to express wt AtPPC1, or a variant PEPC (G678S AtPPC1 or R886G AtPPC1) in a genotypic background devoid of expression of native AtPPC1. Seedlings from the transgenic Arabidopsis strains were grown at 20° C. in a soaked gel environment with aluminum toxicity equivalent to about 50-100 μM in the absence of agar. Root growth was assessed at day 7. […] This is consistent with the improved enzyme kinetics of the G678S AtPPC1 or R886G AtPPC1 enzymes described in Example 5.

B1: ZmPPC1 G678S: engineered Zea mays PPC1 with G678S substitution (G682S in SEQ ID NO:15) (protein)
chain: MASTKAPGPGEKHHSIDAQLRQLVPGKVSEDDKLIEYDALLVDRFLNILQDLHGPSLREFVQECYEVSADYEGKGDTTKLGELGAKLTGLAPADAILVASSILHMLNLANLAEEVQIAHRRRNSKLKKGGFADEGSATTESDIEETLKRLVSEVGKSPEEVFEALKNQTVDLVFTAHPTQSARRSLLQKNARIRNCLTQLNAKDITDDDKQELDEALQREIQAAFRTDEIRRAQPTPQDEMRYGMSYIHETVWKGVPKFLRRVDTALKNIGINERLPYNVSLIRFSSWMGGDRDGNPRVTPEVTRDVCLLARMMAANLYIDQIEELMFELSMWRCNDELRVRAEELHSSSGSKVTKYYIEFWKQIPPNEPYRVILGHVRDKLYNTRERARHLLASGVSEISAESSFTSIEEFLEPLELCYKSLCDCGDKAIADGSLLDLLRQVFTFGLSLVKLDIRQESERHTDVIDAITTHLGIGSYREWPEDKRQEWLLSELRGKRPLLPPDLPQTDEIADVIGAFHVLAELPPDSFGPYIISMATAPSDVLAVELLQRECGVRQPLPVVPLFERLADLQSAPASVERLFSVDWYMDRIKGKQQVMVGYSDSGKDAGRLSAAWQLYRAQEEMAQVAKRYGVKLTLFHGRGGTVGRGGGPTHLAILSQPPDTINGSIRVTVQGEVIEFCFSEEHLCFQTLQRFTAATLEHGMHPPVSPKPEWRKLMDEMAVVATEEYRSVVVKEARFVEYFRSATPETEYGRMNIGSRPAKRRPGGGITTLRAIPWIFSWTQTRFHLPVWLGVGAAFKFAIDKDVRNFQVLKEMYNEWPFFRVTLDLLEMVFAKGDPGIAGLYDELLVAEELKPFGKQLRDKYVETQQLLLQIAGHKDILEGDPFLKQGLVLRNPYITTLNVFQAYTLKRIRDPNFKVTPQPPLSKEFADENKPAGLVKLNPASEYPPGLEDTLILTMKGIAAGMQNTG
Regarding B1, in series [1], the “effects of the allosteric inhibitor malate relative to wt ZmPPC1” value was “greatly reduce”, the Km was found to be 2.66 ± 0.333 mM, the Vmax amounted to 17.74 ± 1.04 units/mg and the “increases in catalytic efficiency relative to wt ZmPPC1” value was about 200%. The “activity of C4 PEPC” value in series [1] is “increased activity”.

B2: ZmPPC1 wild type: wild type Zea mays PPC1, C4 PEPC, SEQ ID NO:15 (protein)
chain: B1 chain with S682G
With B2, in series [1], the Michaelis constant (Km) was 4.62 ± 0.406 mM and the Vmax is reported as 17.56 ± 2.35 units/mg. In addition, the “effect of malate on enzyme” value in series [1] (at 50 mM malate) is given as “completely inhibited”.

B3: ZmPPC1 T7781: engineered Zea mays PPC1 with T778I substitution (T782I in SEQ ID NO:15) (protein)
chain: B1 chain with S682G, T782I
B3: in series [1], the “effects of the allosteric inhibitor malate relative to wt ZmPPC1” value was “greatly reduce”, the Km amounted to 1.19 ± 0.104 mM, the Vmax was 14.05 ± 0.44 units/mg and the “increases in catalytic efficiency relative to wt ZmPPC1” value is listed as about 300%. Besides, the “activity of C4 PEPC” value in series [1] was “increased activity”.

B4: AtPPC1 G678S: engineered Arabidopsis thaliana PPC1 with G678S substitution (alr-128), SEQ ID NO:11 (protein)
chain: MANRKLEKMASIDVHLRQLVPGKVSEDDKLVEYDALLLDRFLDILQDLHGEDLRETVQELYEHSAEYEGKHEPKKLEELGSVLTSLDPGDSIVIAKAFSHMLNLANLAEEVQIAYRRRIKKLKKGDFVDESSATTESDLEETFKKLVGDLNKSPEEIFDALKNQTVDLVLTAHPTQSVRRSLLQKHGRIRDCLAQLYAKDITPDDKQELDEALQREIQAAFRTDEIKRTPPTPQDEMRAGMSYFHETIWKGVPKFLRRVDTALKNIGIEERVPYNAPLIQFSSWMGGDRDGNPRVTPEVTRDVCLLARMMAATMYFNQIEDLMFEMSMWRCNDELRARADEVHANSRKDAAKHYIEFWKSIPTTEPYRVILGDVRDKLYHTRERAHQLLSNGHSDVPVEATFINLEQFLEPLELCYRSLCSCGDRPIADGSLLDFLRQVSTFGLSLVRLDIRQESDRHTDVLDAITTHLDIGSYREWSEERRQEWLLSELSGKRPLFGSDLPKTEEIADVLDTFHVIAELPADSFGAYIISMATAPSDVLAVELLQRECRVKQPLRVVPLFEKLADLEAAPAAVARLFSVDWYKNRINGKQEVMIGYSDSGKDAGRLSAAWQLYKAQEELVKVAKEYGVKLTMFHGRGGTVGRGGGPTHLAILSQPPDTINGSLRVTVQGEVIEQSFSEEHLCFRTLQRFTAATLEHGMRPPISPKPEWRALLDEMAVVATEEYRSVVFQEPRFVEYFRLATPELEYGRMNIGSRPSKRKPSGGIESLRAIPWIFAWTQTRFHLPVWLGFGSAIRHVIEKDVRNLHMLQDMYQHWPFFRVTIDLIEMVFAKGDPGIAALYDKLLVSEELWPFGEKLRANFEETKKLILQTAGHKDLLEGDPYLKQRLRLRDSYITTLNVCQAYTLKRIRDPSYHVTLRPHISKEIAESSKPAKELIELNPTSEYAPGLEDTLILTMKGIAAGLQNTG
With B4, in series [2], the Km is 0.433 ± 0.04 mM and the Vmax came out at 17.784 ± 0.44 units/mg. The “increase in catalytic efficiency over wt AtPPC1” value in series [2] (Kcat/Km relative to wt AtPPC1) is about 5 fold. Besides, the “reduction in Km” value in series [2] (compared with wt AtPPC1) came to 85%. In series [3], the “root growth in the presence of aluminum” value is “large increase”.

B5: AtPPC1 T778I: engineered Arabidopsis thaliana PPC1 with T778I substitution (alr-139), SEQ ID NO:12 (protein)
chain: B4 chain with S678G, T778I
With B5, in series [2], the Km came out at 1.09 ± 0.027 mM and the Vmax came out at 14.738 ± 0.15 units/mg.

B6: AtPPC1 A651V: engineered Arabidopsis thaliana PPC1 with A651V substitution (alr-108), SEQ ID NO:10 (protein)
chain: B4 chain with A651V, S678G
Turning to B6, in series [2], the Michaelis constant (Km) worked out at 0.956 ± 0.04 mM and the Vmax is 15.776 ± 0.25 units/mg.

B7: AtPPC1 wild type: wild type Arabidopsis thaliana PPC1, C3 PEPC, SEQ ID NO:1 (protein)
chain: B4 chain with S678G
With B7, in series [2], the Km is 2.74 ± 0.166 mM and the Vmax came to 24.992 ± 0.69 units/mg.

B8: AtPPC1 R886G: engineered Arabidopsis thaliana PPC1 enzyme with R886G substitution (protein, UniProt Q9MAH0 1-967, looked up, variant R886G)
Phosphoenolpyruvate …: B4 chain with S678G, R886G
On to B8, for which, in series [2], the Michaelis constant (Km) is 1.11 ± 0.036 mM and the Vmax came to 12.586 ± 0.14 units/mg. Moreover, in series [3], the “root growth in the presence of aluminum” value is on record as “large increase”.

The Km is the concentration of substrate that gives half-maximal velocity.
